Test results: US20140031234A1 (published 2014)

Biological target: the molecule itself
Assay: Sephacryl S100 gel filtration; self-association

B1: Strep-tagged Δ513 of NPR1 (other)
chain: AVLDQIMNCEDLTQLACGEDDTAEKRLQKKQRYMEIQETLKKAFSEDNLELGNSSLTDSTSSTSKSTGGKRSNRKLSHRRR
notes: E. coli-produced; used in S100 gel filtration; not shown: N-terminal Strep-Tag (and any vector linker)
B1: binds.
